Assay results published in PMC3103433 (2011).
One block for each substance: values may come before it.

Legend:
VAMP2 = VAMP2 (UniProt P63044); assay: GST pull-down, anti-Munc18c and anti-pTyr blots; conditions: reference: Munc18c incubated without CIRK; sites Y521
[1] = molecular target: Syntaxin 4 (Sx4) cytosolic domain, 1-273 (UniProt P70452); assay: GST pull-down, anti-Munc18c and anti-pTyr blots; conditions: reference: Munc18c incubated without CIRK; sites Y521
CIRK-treated Munc18c = assay: GST pull-down, anti-Munc18c immunoblot quantification; conditions: 1 μg GST fusion on glutathione-Sepharose, 1 μg Munc18c pre-treated with 370 ng CIRK for 150 min, binding buffer, overnight, 4°C, n=3, read off a plot, scale: % of control Munc18c bound to wild-type Sx4

Sx4-GST, wild-type Syntaxin 4 cytosolic domain (residues 1-273), sequence (P70452 whole entry L173A/E174A, looked up, the tested form may be a part): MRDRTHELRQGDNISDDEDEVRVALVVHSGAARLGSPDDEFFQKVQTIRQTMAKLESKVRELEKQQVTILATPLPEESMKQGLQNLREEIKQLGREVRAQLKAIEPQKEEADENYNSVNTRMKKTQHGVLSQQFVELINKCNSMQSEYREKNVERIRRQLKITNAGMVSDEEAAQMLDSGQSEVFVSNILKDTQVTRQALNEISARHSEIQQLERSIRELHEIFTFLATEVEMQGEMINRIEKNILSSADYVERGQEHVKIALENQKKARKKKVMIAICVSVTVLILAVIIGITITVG
Sx4 lacking the N-terminal 36 amino acids (N36Δ), GST fusion, sequence (P70452 whole entry, looked up, stated change not applied, the tested form may be a part): as the sequence (P70452 whole entry L173A/E174A, looked up, the tested form may be a part) above, with A173L, A174E counted along it

- binding against the reference (VAMP2): weaker
Substance: Munc18c (from UniProt Q60770) CIRK-treated Munc18c (pTyr form absent from pull-down)

- other: percent decrease [1]: 30%
Substance: Munc18c (from UniProt Q60770) Munc18c pre-treated with CIRK

- other: % Munc18c bound relative to wild-type Sx4 (CIRK-treated Munc18c; parent: est. 9): 10
Substance: Sx4 lacking the N-terminal 36 amino acids (N36Δ), GST fusion (from UniProt P70452) L173A; E174A

- other: % Munc18c bound relative to wild-type Sx4 (CIRK-treated Munc18c; parent: est. 71): 64
Substance: Sx4-GST, wild-type Syntaxin 4 cytosolic domain (residues 1-273) (from UniProt P70452) L173A; E174A
